Source: US20210261648A1 (published 2021)
Substitutions are numbered along the chain they refer to.

T1: FcγRIIa type R (human, UniProt P12318 34-217)
T1 chain: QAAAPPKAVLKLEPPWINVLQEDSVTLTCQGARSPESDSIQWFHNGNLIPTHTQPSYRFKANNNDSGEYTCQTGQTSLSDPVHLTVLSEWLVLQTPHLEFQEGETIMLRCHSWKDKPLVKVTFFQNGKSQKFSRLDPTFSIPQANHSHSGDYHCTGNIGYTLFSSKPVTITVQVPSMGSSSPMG

T2: FcγRIIb (human, UniProt P31994 43-217)
T2 construct: extracellular domain; also called FcgRIIb; CD32B
T2 sequence (looked up): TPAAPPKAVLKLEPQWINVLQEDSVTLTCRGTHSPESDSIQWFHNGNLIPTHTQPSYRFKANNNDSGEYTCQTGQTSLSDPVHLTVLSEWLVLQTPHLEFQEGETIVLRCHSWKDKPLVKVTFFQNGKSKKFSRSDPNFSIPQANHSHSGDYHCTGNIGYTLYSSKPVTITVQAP

T3: FcγRIIb extracellular domain with C-terminal His tag (human, UniProt P31994 43-217)
T3 construct: extracellular domain; also called FcgRIIb
T3 sequence (looked up): T2 sequence (looked up)

B1: IL6R-BP495/IL6R-L (antibody, human IgG1, kappa)
heavy: QVQLQESGPGLVKPSETLSLTCAVSGHSISHDHAWSWVRQPPGEGLEWIGFISYSGITNYNPSLQGRVTISRDNSKNTLYLQMNSLRAEDTAVYYCARSLARTTAMDYWGEGTLVTVSSASTKGPSVFPLAPSSKSTSGGTAALGCLVKDYFPEPVTVSWNSGALTSGVHTFPAVLQSSGLYSLSSVVTVPSSSLGTQTYICNVNHKPSNTKVDKKVEPKSCDKTHTCPPCPAPELLGDDSVFLFPPKPKDTLMISRTPEVTCVVVDVGEEDGEVKFNWYVDGVEVHNAKTKPREEQDNSTYRVVSVLTVLHQDWLNGKEYKCKVSNKALPRPIEKTISKAKGQPREPQVYTLPPSRDELTKNQVSLTCLVKGFYPSDIAVEWESNGQPENNYKTTPPVLDSDGSFFLYSKLTVDKSRWQQGNVFSCSVMHEALHNHYTQESLSLSP
light: not shown
notes: Alterations in EU numbering, introduced into IL6R-B3
B2: IL6R-BP268/IL6R-L (antibody, human IgG1, kappa)
heavy: B1 heavy with E235D, G269S, R332A
light: not shown
notes: as for B1
B3: IL6R-BP504/IL6R-L (antibody, human IgG1, kappa)
heavy: B1 heavy with E235D, V266I, G269A, E274P, D298Y, R332A
light: not shown
notes: as for B1
B4: IL6R-BP494/IL6R-L (antibody, human IgG1, kappa)
heavy: B1 heavy with G269A
light: not shown
notes: as for B1
B5: IL6R-BP505/IL6R-L (antibody, human IgG1, kappa)
heavy: B1 heavy with E235D, V266I, G269A, E274D, D298Y, R332A
light: not shown
notes: as for B1
B6: IL6R-BP269/IL6R-L (antibody, human IgG1, kappa)
heavy: B1 heavy with G269S, R332A
light: not shown
notes: as for B1
B7: IL6R-BP483/IL6R-L (antibody, human IgG1, kappa)
heavy: B1 heavy with E235D, V268L, G269A, D298Y, R332A
light: not shown
notes: as for B1
B8: IL6R-BP484/IL6R-L (antibody, human IgG1, kappa)
heavy: B1 heavy with E235D, G269A, E271D, D298Y, R332A
light: not shown
notes: as for B1
B9: IL6R-BP481/IL6R-L (antibody, human IgG1, kappa)
heavy: B1 heavy with E235D, V266I, G269A, D298Y, R332A
light: not shown
notes: as for B1
B10: IL6R-BP479/IL6R-L (antibody, human IgG1, kappa)
heavy: B1 heavy with E235D, V266I, V268L, G269A, D298Y, R332A
light: not shown
notes: as for B1
B11: IL6R-BP493/IL6R-L (antibody, human IgG1, kappa)
heavy: B1 heavy with D239G, V266I, G269A, R332A
light: not shown
notes: as for B1
B12: IL6R-BP501/IL6R-L (antibody, human IgG1, kappa)
heavy: B1 heavy with V266I, G269A, D298Y, R332A
light: not shown
notes: as for B1
B13: IL6R-BP445/IL6R-L (antibody, human IgG1, kappa)
heavy: B1 heavy with E235D, V266I, G269A, D298Y
light: not shown
notes: as for B1
B14: IL6R-BP492/IL6R-L (antibody, human IgG1, kappa)
heavy: B1 heavy with D239G, V266I, G269A, D298Y, R332A
light: not shown
notes: as for B1
B15: IL6R-BP262/IL6R-L (antibody, human IgG1, kappa)
heavy: B1 heavy with G269S, D298Y, R332A
light: not shown
notes: as for B1
B16: IL6R-BP500/IL6R-L (antibody, human IgG1, kappa)
heavy: B1 heavy with V266I, G269A, R332A
light: not shown
notes: as for B1
B17: IL6R-BP537/IL6R-L (antibody, human IgG1, kappa)
heavy: B1 heavy with V266I, D298Y
light: not shown
notes: as for B1
B18: IL6R-BP534/IL6R-L (antibody, human IgG1, kappa)
heavy: B1 heavy with E235D, V266I, G269S, P398L
light: not shown
notes: as for B1
B19: IL6R-BP535/IL6R-L (antibody, human IgG1, kappa)
heavy: B1 heavy with E235D, V266I, A329G, P398M
light: not shown
notes: as for B1
B20: IL6R-BP480/IL6R-L (antibody, human IgG1, kappa)
heavy: B1 heavy with E235D, V268L, G269S, E271D, D298Y, R332A
light: not shown
notes: as for B1
B21: IL6R-BP553/IL6R-L (antibody, human IgG1, kappa)
heavy: B1 heavy with E235D, V266I, G269A, E274D, D298Y
light: not shown
notes: as for B1
B22: IL6R-BP552/IL6R-L (antibody, human IgG1, kappa)
heavy: B1 heavy with E235D, V266I, G269A, E274D
light: not shown
notes: as for B1
B23: IL6R-BP555/IL6R-L (antibody, human IgG1, kappa)
heavy: B1 heavy with V266I, G269A, E274D
light: not shown
notes: as for B1
B24: IL6R-BP490/IL6R-L (antibody, human IgG1, kappa)
heavy: B1 heavy with V266I, G269A, D298Y
light: not shown
notes: as for B1
B25: IL6R-BP507/IL6R-L (antibody, human IgG1, kappa)
heavy: B1 heavy with E235D, V266I, G269A, E274P, D298Y
light: not shown
notes: as for B1
B26: IL6R-BP506/IL6R-L (antibody, human IgG1, kappa)
heavy: B1 heavy with E235D, V266I, G269A, E274P
light: not shown
notes: as for B1
B27: IL6R-BP532/IL6R-L (antibody, human IgG1, kappa)
heavy: B1 heavy with E235D, V266I, G269S, P398M
light: not shown
notes: as for B1
B28: IL6R-BP557/IL6R-L (antibody, human IgG1, kappa)
heavy: B1 heavy with E270D
light: not shown
notes: as for B1
B29: IL6R-BP531/IL6R-L (antibody, human IgG1, kappa)
heavy: B1 heavy with E235D, V266I, P398M
light: not shown
notes: as for B1
B30: IL6R-BP426/IL6R-L (antibody, human IgG1, kappa)
heavy: B1 heavy with E235D, G269A, E271D, D298Y
light: not shown
notes: as for B1
B31: IL6R-BP435/IL6R-L (antibody, human IgG1, kappa)
heavy: B1 heavy with E235D, G269S, E270D, K328A, I334T
light: not shown
notes: as for B1
B32: IL6R-BP205/IL6R-L (antibody, human IgG1, kappa)
heavy: B1 heavy with E235D, D239G, G269S, E270H
light: not shown

Molecular target: T1, FcγRIIa type R
Test: SPR (Biacore); parent = IL6R-B3/IL6R-L

Row | KD(IIaR) of the parent polypeptide/KD(IIaR) of the altered polypeptide | Binder
1 | 2.2 fold | B1
2 | 0.6 fold | B2
3 | 2.4 fold | B3
4 | 4.3 fold | B4
5 | 2.6 fold | B5
6 | 0.5 fold | B6
7 | 0.8 fold | B7
8 | 1.4 fold | B8
9 | 2.8 fold | B9
10 | 1.2 fold | B10
11 | 1 fold | B11
12 | 1.7 fold | B12
13 | 13.8 fold | B13
14 | 1.2 fold | B14
15 | 0.5 fold | B15
16 | 1.5 fold | B16

Molecular target: T2, FcγRIIb
Test: SPR (Biacore); parent = IL6R-B3/IL6R-L

Row | KD(IIb) of the parent polypeptide/KD(IIb) of the altered polypeptide | Binder
17 | 321 fold | B1
18 | 33.7 fold | B2
19 | 128 fold | B3
20 | 471 fold | B4
21 | 145 fold | B5
22 | 27.4 fold | B6
23 | 39.7 fold | B7
24 | 67.8 fold | B8
25 | 160 fold | B9
26 | 55.5 fold | B10
27 | 147 fold | B11
28 | 123 fold | B12
29 | 1200 fold | B13
30 | 131 fold | B14
31 | 25.8 fold | B15
32 | 128 fold | B16

Molecular target: T1, FcγRIIa type R
Test: SPR (Biacore), captured antibody, soluble FcγR

Row | Kd | Binder
33 | 490 nM | B1
34 | 1800 nM | B2
35 | 450 nM | B3
36 | 250 nM | B4
37 | 270 nM | B17
38 | 430 nM | B5
39 | 91 nM | B18
40 | 2200 nM | B6
41 | 92 nM | B19
42 | 1300 nM | B7
43 | 780 nM | B8
44 | 6300 nM | B20
45 | 86 nM | B21
46 | 400 nM | B9
47 | 900 nM | B10
48 | 1100 nM | B11
49 | 97 nM | B22
50 | 160 nM | B23
51 | 630 nM | B12
52 | 110 nM | B24
53 | 100 nM | B25
54 | 120 nM | B26
55 | 80 nM | B13
56 | 94 nM | B27
57 | 920 nM | B14
58 | 850 nM | B28
59 | 120 nM | B29
60 | 2000 nM | B15
61 | 720 nM | B16

Molecular target: T2, FcγRIIb
Test: SPR (Biacore), captured antibody, soluble FcγR

Row | Kd | Binder
62 | 9.7 nM | B1
63 | 92 nM | B2
64 | 24 nM | B3
65 | 6.6 nM | B4
66 | 6.9 nM | B17
67 | 21 nM | B5
68 | 3 nM | B18
69 | 110 nM | B6
70 | 4 nM | B19
71 | 78 nM | B7
72 | 46 nM | B8
73 | 200 nM | B20
74 | 3.1 nM | B21
75 | 19 nM | B9
76 | 56 nM | B10
77 | 21 nM | B11
78 | 2.6 nM | B22
79 | 4.1 nM | B23
80 | 25 nM | B12
81 | 2.4 nM | B24
82 | 2.9 nM | B25
83 | 3.4 nM | B26
84 | 2.6 nM | B13
85 | 3.2 nM | B27
86 | 24 nM | B14
87 | 20 nM | B28
88 | 3.8 nM | B29
89 | 120 nM | B15
90 | 24 nM | B16

Molecular target: T4, FcγRIa (human, UniProt P12314 16-292)
T4 construct: Whole entry named; also called FcgRIa; CD64A
T4 sequence (P12314 16-292): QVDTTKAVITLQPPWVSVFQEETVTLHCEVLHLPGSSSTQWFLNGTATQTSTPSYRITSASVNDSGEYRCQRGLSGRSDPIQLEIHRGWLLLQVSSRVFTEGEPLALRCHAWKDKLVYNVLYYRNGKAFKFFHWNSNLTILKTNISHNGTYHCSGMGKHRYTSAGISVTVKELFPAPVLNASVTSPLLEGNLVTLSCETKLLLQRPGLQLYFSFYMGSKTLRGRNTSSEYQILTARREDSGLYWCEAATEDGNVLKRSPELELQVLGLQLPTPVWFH
Test: SPR (Biacore), captured antibody, soluble FcγR

Row | Kd | Binder
91 | 8.3 nM | B1
92 | 4.5 nM | B2
93 | 1.4 nM | B3
94 | 3.9 nM | B4
95 | 29 nM | B17
96 | 1.1 nM | B5
97 | 9.3 nM | B18
98 | 14 nM | B6
99 | 11 nM | B19
100 | 1.3 nM | B7
101 | 0.82 nM | B8
102 | 3.4 nM | B21
103 | 1 nM | B9
104 | 5.3 nM | B10
105 | 0.82 nM | B11
106 | 3.2 nM | B22
107 | 9.4 nM | B23
108 | 2.1 nM | B12
109 | 4.5 nM | B24
110 | 2.6 nM | B25
111 | 3.1 nM | B26
112 | 1 nM | B30
113 | 2 nM | B13
114 | 12 nM | B27
115 | 0.79 nM | B14
116 | 9.4 nM | B29
117 | 10 nM | B15
118 | 1 nM | B31
119 | 2.3 nM | B16

Molecular target: T3, FcγRIIb extracellular domain with …
Test: SPR, captured antibody, FcgR analyte
Method: (§1) Relative binding activities were calculated for the results of analyzing interactions with the respective FcγRs according to the following method.

Row | relative binding activity | Binder
120 | 167 relative (IL6R-BF648/IL6R-L = 100) | B32

Molecular target: T5, FcγRIa extracellular domain with C-terminal His tag (human, UniProt P12314 16-292)
T5 construct: also called FcgRIa
T5 sequence (P12314 16-292): as above
Test: SPR, captured antibody, FcgR analyte
Method: as §1

Row | relative binding activity | Binder
121 | 97 relative (IL6R-BF648/IL6R-L = 100) | B32
